Where a chain is given by its changes, count along the chain named.
B1: 15A1 Fab (Fab, V domains shown)
VH: QVQLVQSGAEVKKPGASVKVSCKASGYTFTSYYMHWVRQAPGQGLEWMGIINPSGGSTSYAQKFQGRVTMTRDTSTSTVYMELSSLRSEDTAVYYCARNYYIGVVTFDYWGQGTLVTVSS
VL: QAVVTQEPSLTVSPGGTVTLTCGSSTGAVTTSNYANWVQEKPGQAFRGLIGGTNKRAPGTPARFSGSLLGGKAALTLSGAQPEDEAEYYCALWYSNLWVFGGGTKLTVL
B2: 18D3 Fab (Fab, V domains shown)
VH: QVQLVQSGAEVKKPGASVKVSCKASGYTFTSYYMHWVRQAPGQGLEWMGIINPSGGSTSYAQKFQGRVTMTRDTSTSTVYMELSSLRSEDTAVYYCARNYYTGGSSAFDYWGQGTLVTVS
VL: B1 VL
B3: 16A3 Fab (Fab, V domains shown)
VH: B1 VH with I102A, V105T, T106P
VL: B1 VL
B4: 18D3 IgG (antibody, V domains shown)
VH: B2 VH
VL: B1 VL
notes: human IgG1
B5: 15B6 IgG (antibody, V domains shown)
VH: B1 VH with V104I, T106P
VL: B1 VL
notes: human IgG1
B6: 19E5 Fab (Fab, V domains shown)
VH: B1 VH with N99G, Y100E, Y101W, I102R, G103R, V104Y, V105T, T106S
VL: B1 VL
B7: 16A3 IgG (antibody, V domains shown)
VH: B1 VH with I102A, V105T, T106P
VL: B1 VL
notes: human IgG1
B8: 15H7 IgG (antibody, V domains shown)
VH: B1 VH with I102L, G103F, V104S, V105T, T106S
VL: B1 VL
notes: human IgG1
B9: 19A4 Fab (Fab, V domains shown)
VH: B1 VH with N99G, Y100G, Y101W, G103R, V104W, V105E, T106H
VL: B1 VL
B10: 19H3 Fab (Fab, V domains shown)
VH: B1 VH with N99T, Y100G, Y101W, I102S, G103R, V104W, V105G, T106Y, F107M
VL: B1 VL
B11: 21D1 IgG (antibody, V domains shown)
VH: B1 VH with I102V, V105S, T106P
VL: B1 VL
notes: human IgG1
B12: 20G6 Fab (Fab, V domains shown)
VH: B1 VH with N99G, Y100E, Y101W, G103R, V104Y, V105Y, T106H
VL: B1 VL
B13: 21D1 Fab (Fab, V domains shown)
VH: B1 VH with I102V, V105S, T106P
VL: B1 VL
B14: 16F12 IgG (antibody, V domains shown)
VH: B1 VH with Y100F, Y101T, I102V, G103L, V104R, T106P
VL: B1 VL
notes: human IgG1
B15: 15H7 Fab (Fab, V domains shown)
VH: B1 VH with I102L, G103F, V104S, V105T, T106S
VL: B1 VL
B16: Tim3_0028 (antibody, V domains shown)
VH: EVQLQQSVAELVRPGASVKLSCTASGFNIKTTYMHWVKQRPEQGLEWIGRIDPADDNTKYAPKFQGKATITADTSSNTAYLQLSSLTSEDAAIYYCVRDFGYVAWFAYWGQGTLVTFSA
VL: NIVMTPTPKFLPVSSGDRVTMTCRASQSVDNYVAWYQQKPGQSPKLLIYYASNRYIGVPDRFTGSGSGTDFTFTISSVQVEDLAVYFCQQHYSSPYTFGSGTKLEIK
B17: Tim3_0038 (antibody, V domains shown)
VH: EVQLQQSGAEPLKPGASVKLTCTTSGFNIKDYYIHWVKQRSDQGLEWIGRIDPEDGELIYAPKFQDKATITVDTSSNIAYLQLNSLTSEDTAVYYCSRDHGYVGWFAYWGQGTLVTVSA
VL: NVVMTQSPKSMIMSVGQRVTLNCKASENVDTYVSWYQQKPEQSPKLLIYGASNRYTGVPDRFTGSRSATDFTLTISSVQAEDLAVYYCGQSYSYPWTFGGGTKLEFR
B18: 6B6 IgG (antibody, V domains shown)
VH: QVQLVQSGAEVKKPGASVKVSCKASGYTFTSYYMHWVRQAPGQGLEWMGIINPSGGSTSYAQKFQGRVTMTRDTSTSTVYMELSSLRSEDTAVYYCARSYVDMDYWGQGTLVTVSS
VL: EIVLTQSPGTLSLSPGERATLSCRASQSVSSSYLAWYQQKPGQAPRLLIYGASSRATGIPDRFSGSGSGTDFTLTISRLEPEDFAVYYCQQDIWSPTFGQGTKVEIK
notes: human IgG1

How the values were obtained:
[1] = target: T1, human FolR1 ECD-AcTev-Fcknob-Avi tag + Fc hole, biotinylated monomeric Fc fusion (human, UniProt P0DOX5 223-449 = IgG part); assay: SPR ProteOn, Fab analyte;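 note: recombinant antigens immobilized, purified Fab two-fold dilutions injected in parallel channels, 200 s association and 600 s dissociation, buffer-only channel as in-line reference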
T1 construct: also called huFolR1; huFolR1-Fc
Procedure: (§1) Immobilization of antigens (ligand): Recombinant antigens were diluted with PBST (10 mM phosphate, 150 mM sodium chloride pH 7.4, 0.005% Tween 20) to 10 μg/ml, then injected at 30 μl/minute in vertical orientation.
(§2) Injection of analytes: For ‘one-shot kinetics’ measurements, injection direction was changed to horizontal orientation, two-fold dilution series of purified Fab (varying concentration ranges) were injected simultaneously along separate channels 1-5, with association times of 200 s, and dissociation times of 600 s. Buffer (PBST) was injected along the sixth channel to provide an “in-line” blank for referencing. Association rate constants (kₒₙ) and dissociation rate constants (koff) were calculated using a simple one-to-one Langmuir binding model in ProteOn Manager v3.1 software by simultaneously fitting the association and dissociation sensorgrams. The equilibrium dissociation constant (KD) was calculated as the ratio koff/kₒₙ.

[2] = target: T2, cynomolgus FolR1 ECD-AcTev-Fcknob-Avi tag + Fc hole, biotinylated monomeric Fc fusion (cynomolgus, UniProt P0DOX5 223-449 = IgG part); assay: SPR ProteOn, Fab analyte;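 note: recombinant antigens immobilized, purified Fab two-fold dilutions injected in parallel channels, 200 s association and 600 s dissociation, buffer-only channel as in-line reference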
T2 construct: also called cyFolR1; cyno FolR1-Fc
Procedure: as §1, §2

[3] = target: T3, human FolR2 ECD-AcTev-Fcknob-Avi tag + Fc hole, biotinylated monomeric Fc fusion (human, UniProt P0DOX5 223-449 = IgG part); assay: SPR ProteOn, Fab analyte;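 note: recombinant antigens immobilized, purified Fab two-fold dilutions injected in parallel channels, 200 s association and 600 s dissociation, buffer-only channel as in-line reference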
T3 construct: also called huFolR2; FolR2-Fc
Procedure: as §1, §2

[4] = target: T4, human FolR3 ECD-AcTev-Fcknob-Avi tag + Fc hole, biotinylated monomeric Fc fusion (human, UniProt P0DOX5 223-449 = IgG part); assay: SPR ProteOn, Fab analyte;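 note: recombinant antigens immobilized, purified Fab two-fold dilutions injected in parallel channels, 200 s association and 600 s dissociation, buffer-only channel as in-line reference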
T4 construct: also called huFolR3; FolR3-Fc
Procedure: as §1, §2

[5] = target: T3, human FolR2 ECD-AcTev-Fcknob-Avi tag + …; assay: SPR, IgG single injection
[6] = target: T4, human FolR3 ECD-AcTev-Fcknob-Avi tag + …; assay: SPR, IgG single injection
[7] = target: T5, murine FolR1 ECD-AcTev-Fcknob-Avitag + Fc hole, biotinylated monomeric Fc fusion (murine, UniProt P0DOX5 223-449 = IgG part); assay: SPR, IgG single injection
T5 construct: also called muFolR1; murine FolR1-Fc

[8] = target: T6, human TIM-3 on cells (human, UniProt Q8TDQ0 22-301); assay: cell-based or functional assay
[9] = target: T6, human TIM-3 on cells; assay: cell-based or functional assay; remark: listed apart in the source
[10] = target: T7, cynomolgus TIM-3 on isolated cyno CD14+ monocytes (cynomolgus); assay: flow cytometry, cyno CD14+ monocytes cyno1
T7 construct: whole, on cells
Source text: (§3) CD14+ Monocytes were isolated from cynomolgus monkey anticoagulated peripheral blood (Covance) by density gradient centrifugation using Ficoll-Paque (GE Healthcare) (see General Protocols in the User Manuals or visit www.miltenyibiotec.com/protocols) and subsequent positive selection via NHP CD14 MicroBeads. First the CD14+ cells are magnetically labeled with CD14 MicroBeads. Then the cell suspension is loaded onto a MACS® Column which is placed in the magnetic field of a MACS Separator. The magnetically labeled CD14+ cells are retained in the column. The unlabeled cells run through, this cell fraction is depleted of CD14+ cells. After removal of the column from the magnetic field, the magnetically retained CD14+ cells can be eluted as the positively selected cell fraction. After centrifugation at 200×g for 10 min at room temperature the monocytes were harvested and used directly in binding assay or resuspended in freezing medium (10% DMSO, 90% FCS) at 1.0E+07 cells/ml and stored in liquid nitrogen.
(§4) 1×10⁵ CD14+ isolated cyno monocytes (50 μl/well) were put into 98 well-v bottom MTP in fresh culture medium and incubated with Redimune® NF Liquid for 15 min at RT to block unspecific binding. Than 50 μl/well of Alexa488 labeled anti-TIM3 (10 μg/ml in cell culture medium) were added and incubated for 1 h at 4° C. After washing and centrifugation MFI signals of stained cells were analyzed by BD Biosciences FACSCanto flow cytometer.

[11] = target: T7, cynomolgus TIM-3 on isolated cyno CD14+ …; assay: flow cytometry, cyno CD14+ monocytes cyno2
Source text: as §3, §4

[12] = target: T7, cynomolgus TIM-3 on isolated cyno CD14+ …; assay: flow cytometry, cyno CD14+ monocytes cyno3
Source text: as §3, §4

[13] = target: T6, human TIM-3 on cells; assay: flow cytometry, human CD14+ monocytes donor1
Source text: (§5) CD14+ Monocytes were isolated from anticoagulated peripheral blood of healthy donors by density gradient centrifugation using Ficoll-Paque (GE Healthcare) (see General Protocols in the User Manuals or visit www.miltenyibiotec.com/protocols) and subsequent positive selection via CD14 MicroBeads. First the CD14+ cells are magnetically labeled with CD14 MicroBeads. Then the cell suspension is loaded onto a MACS® Column which is placed in the magnetic field of a MACS Separator. The magnetically labeled CD14+ cells are retained in the column. The unlabeled cells run through, this cell fraction is depleted of CD14+ cells. After removal of the column from the magnetic field, the magnetically retained CD14+ cells can be eluted as the positively selected cell fraction. After centrifugation at 200×g for 10 min at room temperature the monocytes were harvested and used directly in binding assay or resuspended in freezing medium (10% DMSO, 90% FCS) at 1.0E+07 cells/ml and stored in liquid nitrogen.
(§6) 1×10⁵ CD14+ isolated human monocytes (50 μl/well) were put into 98 well-v bottom MTP in fresh culture medium and incubated with Redimune® NF Liquid for 15 min at RT to block unspecific binding. […] After washing and centrifugation MFI signals of stained cells were analyzed by BD Biosciences FACSCanto flow cytometer.

[14] = target: T6, human TIM-3 on cells; assay: flow cytometry, human CD14+ monocytes donor2
Source text: as §5, §6

[15] = target: T6, human TIM-3 on cells; assay: flow cytometry, human CD14+ monocytes donor3
Source text: as §5, §6

Binder	Kd [2] [nM]	binding result [3]	binding result [4]	binding result [5]	binding result [6]	also measured
B1	17.3	no binding	no binding			Kd [1]: 30.9 nM
B2	40.2	no binding	no binding			Kd [1]: 93.6 nM
B3	18	no binding	no binding			Kd [1]: 21.7 nM
B4				no binding (tested: 500 nM)	no binding (tested: 500 nM)	
B5				no binding (tested: 500 nM)	no binding (tested: 500 nM)	binding result [7]: no binding (tested: 500 nM)
B6	276					
B7				no binding (tested: 500 nM)	no binding (tested: 500 nM)	
B8				no binding (tested: 500 nM)	no binding (tested: 500 nM)	
B9	4250					Kd [1]: 2050 nM
B10		no binding	no binding			binding result [1]: no binding; binding result [2]: no binding
B11				no binding (tested: 500 nM)	no binding (tested: 500 nM)	
B12		no binding	no binding			binding result [1]: no binding; binding result [2]: no binding
B13	32.1	no binding	no binding			Kd [1]: 62.6 nM
B14				no binding (tested: 500 nM)	no binding (tested: 500 nM)	binding result [7]: no binding (tested: 500 nM)
B15	72.5	no binding	no binding			
B16						IFN-gamma release in MLR at 1 µg/ml, % of IL-2 control [8]: 12%; internalization at 30 Min, RPMI-8226 [9]: 50%; internalization at 60 Min, RPMI-8226 [9]: 59%; internalization at 120 Min, RPMI-8226 [9]: 67%; internalization at 240 Min, RPMI-8226 [9]: 68%; internalization at 26 h, RPMI-8226 [9]: 83%; MFI [10]: 3940 MFI; MFI [11]: 3000 MFI; MFI [12]: 4090 MFI; specific binding MFI [13]: 1350 MFI; specific binding MFI [14]: 950 MFI; specific binding MFI [15]: 1610 MFI
B17						IFN-gamma release in MLR at 1 µg/ml, % of IL-2 control [8]: 1%; IFN-gamma release in MLR at 10 µg/ml, % of IL-2 control [8]: 38%; IFN-gamma release in MLR at 40 µg/ml, % of IL-2 control [8]: 51%; MFI [10]: 97 MFI; MFI [11]: 107 MFI; MFI [12]: 120 MFI; specific binding MFI [13]: 1640 MFI; specific binding MFI [14]: 1370 MFI; specific binding MFI [15]: 1400 MFI
B18						binding result [7]: no binding (tested: 500 nM)

From patent US20210087291A1 (Hoffmann-La Roche, published 2021)
